According to US20110288485A1, “MICRONEEDLE DEVICE” (HISAMITSU PHARMACEUTICAL CO., INC., priority 2008, published 2011):

Legend:
[1] = PTH storage method: acceleration stability test of the content, form of package and stabilizing agent (Example 6); type: physicochemical
Method: PTH was prepared at 40 mg/mL with water for injection, which was then dispensed to serve as a drug solution. It was further diluted to 20 mg/mL with water for injection before experiment, 20 μL of which was added dropwise to a microneedle base (400 μg/patch), which served as a medicinal unit.
(§1) A medicinal unit sample for screening of a stabilizing agent was fully dried and enclosed in an aluminum packing material, sandwiched between silicon treated liners, with OZO (OZO kagakugiken Co., Ltd.). It was then stored at 25° C., 40° C., 50° C., and 60° C. to perform an acceleration test to conduct a stability test of the content over time (n=3). The content was returned to room temperature, and then extracted with 4 mL of an extraction liquid, followed by measurement by HPLC.
Extraction liquid: a 0.01% benzalkonium chloride solution or 2% TMTDAB, 1% sodium chloride, and 10 mM acetic acid buffer
Detector: an ultraviolet absorptiometer (measurement wavelength: 220 nm)
Column temperature: 25° C.

[2] = Study on the addition amount of sucrose to PTH, stability of content (Example 7); type: physicochemical
Method: as §1
Other than this, the study was conducted in the same manner as the aforementioned Examples.

[3] = In vitro human skin penetration test by microneedles (parathyroid hormone); type: in vitro ADME; conditions: microneedles height 500 μm compared with 300 μm; 40 μg hPTH coated; attachment six hours
From the text: (§2) Two types of microneedles made of a polylactic acid that differ in the length of the needle part (h: 300 μm and 500 μm) were used. The shape of either of these two types of microneedles was square pyramid, and the density of the microneedle was 400 needles/cm^2. Also, the area of either one of microneedle devices was 1 cm^2.
A coating liquid prepared according to the below-described technique (30% human parathyroid hormone hPTH (1-34) (the product of Sichuan Unibiochem Co., Ltd.), 7.5% pullulan, and 0.1% Tween 20) was coated on a microneedle device similarly to Example 1, and after piercing excised human skin with this microneedle device by finger pressing (2 kg/patch), the device and the skin were placed on an acrylic cell for sampling over time. As a receptor layer, physiological saline containing 0.01% benzalkonium chloride was used, and 1 mL of a receptor liquid collected per sampling time was measured by a gamma counter to calculate a PTH concentration. It is to be noted that a period of attachment of the microneedle device was set at six hours. The results of the sampling are as shown in the graph in FIG. 5.
(2) After coating microneedles with the coating solution prepared in (1), radiation of each pharmaceutical preparation was counted using a NaI counter to estimate the content of PTH coated on the needle part. […]

[4] = Hairless rat in vivo absorption test by microneedles (parathyroid hormone)
From the text: as §2
Firstly, the abdomen of a hairless rat was pierced with a microneedle device in which tips of the needles were coated with a similar coating liquid to Example 2 (30% human parathyroid hormone hPTH (1-34) (the product of Sichuan Unibiochem Co., Ltd.), 7.5% pullulan, and 0.1% Tween 20) by a similar technique to Example 1 by hand pushing, and the microneedle device was covered with a foam tape (the product of 3M Company) and left attached for six hours. Then, blood was collected over time (amount of blood collected 200 μL/times) to measure the serum hPTH concentration with a Rat PTH IRMA kit (the product of Immutopics International). Also, in a subcutaneous administration group, 0.2 mg/mL hPTH in physiological saline was prepared, 40 μL of which was subcutaneously administered to the back of a hairless rat, and the PTH concentration was similarly measured.

[5] = PTH/pullulan coating liquid: solubility evaluation and amount of PTH coated on microneedles (Example 9); type: physicochemical; conditions: 30% or 40% PTH solution with small amount of surfactant (Tween 20)
Method: In order to optimize a ratio between PTH (1-34) (the product of Sichuan Unibiochem Co., Ltd.) and a coating carrier, which is a water-soluble high molecular weight polymer, a study was conducted using PTH and a coating carrier (pullulan). […] The concentration of pullulan was adjusted based on the viscosity of the solution at the time of dissolving, and the range of the concentration of pullulan was set to 0 to 30% (w/w). It is to be noted that, as the pullulan, one recited in Japanese Pharmacopeia (the product of Hayashibara Biochemical Labs., Inc.) was used. Further, in order to increase the adhesiveness to the needles, a study was also conducted for the case in which a surfactant (Tween20, 0.1%) was added as shown in Table 7.
Evaluation of solubility of PTH was performed after adjusting each solution, and a coating liquid capable of adjusting a uniform solution was subjected to an operation for coating of microneedles made of a polylactic acid. Following the aforementioned method as a coating method, coating was performed only on the tip part of the needles with the use of a metal mask (only the needle part was coated using a metal mask having a diameter of the aperture: 220 μm and thickness: 100 μm).

[6] = Study on drying time of a sucrose additive to PTH, stability of content (Example 8); type: physicochemical; conditions: 60° C.
Method: as §1
Using this solution, a drug solution unit was produced, and preservation qualities resulting from various drying times were examined under a nitrogen stream.

human parathyroid hormone hPTH (1-34)
residual ratio (%) relative to the initial value ([1]; 40° C., 1W): 100.22 ± 0.53%
residual ratio (%) relative to the initial value ([1]; 40° C., 2W): 97.64 ± 0.72%
residual ratio (%) relative to the initial value ([1]; 40° C., 4W): 97.02 ± 0.65%
residual ratio (%) relative to the initial value ([1]; 50° C., 1W): 94.65 ± 1.55%
residual ratio (%) relative to the initial value ([1]; 50° C., 2W): 94.10 ± 2.25%
residual ratio (%) relative to the initial value ([1]; 50° C., 4W): 84.26 ± 1.19%
residual ratio (%) relative to the initial value ([1]; 60° C., 1W): 89.50 ± 1.11%
residual ratio (%) relative to the initial value ([1]; 60° C., 2W): 88.22 ± 0.82%
residual ratio (%) relative to the initial value ([1]; 60° C., 4W): 71.80 ± 1.94%
residual ratio (%) relative to the initial value ([2]; 40° C., 1W): 83.26 ± 0.57%
residual ratio (%) relative to the initial value ([2]; 40° C., 4W): 92.82 ± 0.74%
residual ratio (%) relative to the initial value ([2]; 50° C., 4W): 80.83 ± 4.57%
residual ratio (%) relative to the initial value ([2]; 60° C., 4W): 76.55 ± 3.95%
skin penetration property [3]: efficient drug delivery is made possible
initial rise in the blood concentration, reaching maximum blood concentration ([4]; microneedle device vs subcutaneous administration): more rapidly reached than subcutaneous administration
amount of absorption (serum hPTH) ([4]; microneedle length 300 and 500 μm, attached six hours): increases in the amount of absorption dependent on the length of the microneedles
amount of PTH attached by single coating operation [5]: ≥ 20 µg
residual ratio (%) relative to the initial value ([6]; drying time 15 minutes, 1W): 85.35 ± 0.64%
residual ratio (%) relative to the initial value ([6]; drying time 15 minutes, 4W): 75.43 ± 1.69%
residual ratio (%) relative to the initial value ([6]; drying time 30 minutes, 1W): 85.53 ± 0.49%
residual ratio (%) relative to the initial value ([6]; drying time 30 minutes, 4W): 73.10 ± 0.36%
residual ratio (%) relative to the initial value ([6]; drying time 1 hour, 1W): 84.62 ± 0.72%
residual ratio (%) relative to the initial value ([6]; drying time 1 hour, 4W): 75.56 ± 1.69%
residual ratio (%) relative to the initial value ([6]; drying time 2 hours, 1W): 86.01 ± 1.07%
residual ratio (%) relative to the initial value ([6]; drying time 2 hours, 4W): 73.93 ± 1.41%
residual ratio (%) relative to the initial value ([6]; drying time 16 hours, 1W): 87.08 ± 0.72%
residual ratio (%) relative to the initial value ([6]; drying time 16 hours, 4W): 72.71 ± 2.01%
